Biological target: Skp1 (mouse, endogenous in RAW264.7 cells) (mouse (endogenous in RAW264.7)) (UniProt Q9WTX5)
Chain of UniProt Q9WTX5 (Q9WTX5 whole entry): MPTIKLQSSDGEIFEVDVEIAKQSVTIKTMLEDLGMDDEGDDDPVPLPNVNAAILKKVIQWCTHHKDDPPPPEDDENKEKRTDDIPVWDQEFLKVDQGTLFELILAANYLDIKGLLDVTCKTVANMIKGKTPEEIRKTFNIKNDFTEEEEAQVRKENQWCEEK

| Substance | NFκB-driven luciferase in RAW264.7 cells infected with ΔgogB complemented with GogBΔ264–352 (F-box motif deleted), fold of wild type Salmonella (fold of wild type) | NFκB-driven luciferase in RAW264.7 cells infected with ΔgogB complemented with GogB-NT (C-terminal domain deleted), fold of wild type Salmonella (fold of wild type) |
| --- | --- | --- |
| GogB Δ264–352 (in-frame deletion of the F-box-like domain), HA-tagged, delivered by the T3SS (natural protein) | 4 | – |
| GogB-NT (amino acids 1-253, N-terminal LRR domain), HA-tagged, delivered by the T3SS (domain or fragment) | – | 4 |
